Measured values from PMC5034116 (Cell Research, 2016).

Target: the molecule itself
Assay: crystal structure

B1: NudC (residues 1-257, E178Q), Escherichia coli, active-site mutant (enzyme, UniProt P32664 1-257, looked up)
chain: MDRIIEKLDHGWWVVSHEQKLWLPKGELPYGEAANFDLVGQRALQIGEWQGEPVWLVQQQRRHDMGSVRQVIDLDVGLFQLAGRGVQLAEFYRSHKYCGYCGHEMYPSKTEWAMLCSHCRERYYPQIAPCIIVAIRRDDSILLAQHTRHRNGVHTVLAGFVEVGETLEQAVAREVMEQSGIKVKNLRYVTSQPWPFPQSLMTAFMAEYDSGDIVIDPKELLEANWYRYDDLPLLPPPGTVARRLIEDTVAMCRAEYE
B1 was tested, and the “stoichiometry N” value was 2.
